The text below walks through data of patent publication US20050101769A1 (VLAAMS INTERUNIVERSITAIR INSTITUUT VOOR BIOTECHNOLOGIE VZW, published 2005).

First the molecules themselves.
B1: cytoplasmic region of CD30 (receptor, UniProt P28908 407-595, looked up)
chain: CHRRACRKRIRQKLHLCYPVQTSQPKLELVDSRPRRSSTQLRSGASVTEPVAEERGLMSQPLMETCHSVGAAYLESLPLQDASPAGGPSSPRDLPEPRVSTEHTNNKIEKIYIMKADTVIVGTVKAELPEGRGLAGPAEPELEEELEADHTPHYPEQETEPPLGSCSDVMLSVEEEGKEDPLPTAASGK
notes: domain: cytoplasmic region
B2: 4F2d3, TTRAP deletion mutant, amino acids 54 to 273 (other)
chain: MERALNSYFEPPVEESALERRPETISEPKTYVDLTNEETTDSTTSKISPSEDTQQENGSMFSLITWNIDGLDLNNLSERARGVCSYLALYSPDVIFLQEVIPPYYSYLKKRSSNYEIITGHEEGYFTAIMLKKSRVKLKSQEIIPFPSTKMMRNLLCVHVNVSGNELCLMTSHLESTRGHAAERMNQLKMVLKKMQEAPESATVIFAGDTNLRDREVTRC
notes: Yeast two-hybrid fusion
B3: cytoplasmic region of TNF-RII (receptor, UniProt P20333 288-461, looked up)
chain: KKKPLCLQREAKVPHLPADKARGTQGPEQQHLLITAPSSSSSSLESSASALDRRAPTRNQPQAPGVEASGAGEARASTGSSDSSPGGHGTQVNVTCIVNVCSSSDHSSQCSSQASSTMGDTDSSPSESPKDEQVPFSKEECAFRSQLETPETLLGSTEEKPLPLGVPDAGMKPS
notes: domain: cytoplasmic region
B4: TTRAP (TRAF and TNF receptor associated protein), full-length human (other)
chain: MELGSCLEGGREAAEEEGEPEVKKRRLLCVEFASVASCDAAVAQCFLAENDWEMERALNSYFEPPVEESALERRPETISEPKTYVDLTNEETTDSTTSKISPSEDTQQENGSMFSLITWNIDGLDLNNLSERARGVCSYLALYSPDVIFLQEVIPPYYSYLKKRSSNYEIITGHEEGYFTAIMLKKSRVKLKSQEIIPFPSTKMMRNLLCVHVNVSGNELCLMTSHLESTRGHAAERMNQLKMVLKKMQEAPESATVIFAGDTNLRDREVTRCGGLPNNIVDVWEFLGKPKHCQYTWDTQMNSNLGITAACKLRFDRIFFRAAAEEGHIIPRSLDLLGLEKLDCGRFPSDHWGLLCNLDIIL
notes: Protein of 362 amino acids; In the yeast two-hybrid assays it is a fusion expressed from the prey plasmid (pJG45); also called CD40 receptor associated protein
B5: 4F2d1, TTRAP deletion mutant, amino acids 54 to 140 (other)
chain: MERALNSYFEPPVEESALERRPETISEPKTYVDLTNEETTDSTTSKISPSEDTQQENGSMFSLITWNIDGLDLNNLSERARGVCSYL
notes: Yeast two-hybrid fusion
B6: 4F2, TTRAP deletion mutant, amino acids 54 to 362 (other)
chain: MERALNSYFEPPVEESALERRPETISEPKTYVDLTNEETTDSTTSKISPSEDTQQENGSMFSLITWNIDGLDLNNLSERARGVCSYLALYSPDVIFLQEVIPPYYSYLKKRSSNYEIITGHEEGYFTAIMLKKSRVKLKSQEIIPFPSTKMMRNLLCVHVNVSGNELCLMTSHLESTRGHAAERMNQLKMVLKKMQEAPESATVIFAGDTNLRDREVTRCGGLPNNIVDVWEFLGKPKHCQYTWDTQMNSNLGITAACKLRFDRIFFRAAAEEGHIIPRSLDLLGLEKLDCGRFPSDHWGLLCNLDIIL
notes: also called longest TTRAP fragment (aa 54-362); TTRAP/4F2
B7: 4F2d2, TTRAP deletion mutant, amino acids 54 to 236 (other)
chain: MERALNSYFEPPVEESALERRPETISEPKTYVDLTNEETTDSTTSKISPSEDTQQENGSMFSLITWNIDGLDLNNLSERARGVCSYLALYSPDVIFLQEVIPPYYSYLKKRSSNYEIITGHEEGYFTAIMLKKSRVKLKSQEIIPFPSTKMMRNLLCVHVNVSGNELCLMTSHLESTRGHAAE
notes: Yeast two-hybrid fusion
B8: LMP-1 (other)
chain: YYHGQRHSDEHHHDDSLPHPQQATDDSGHESDSNSNEGRHHLLVSGAGDGPPLCSQNLGAPGGGPDNGPQDPDNTDDNGPQDPDNTDDNGPHDPLPQDPDNTDDNGPQDPDNTDDNGPHDPLPHSPSDSAGNDGGPPQLTEEVENKGGDQGPPLMTDGGGGHSHDSGHGGGDPHLPTLLLGSSGSGGDDDDPHGPVQLSYYD
B9: FADD (other, UniProt Q13158 1-208, looked up)
chain: MDPFLVLLHSVSSSLSSSELTELKFLCLGRVGKRKLERVQSGLDLFSMLLEQNDLEPGHTELLRELLASLRRHDLLRRVDDFEAGAAAGAAPGEEDLCAAFNVICDNVGKDWRRLARQLKVSDTKIDSIEDRYPRNLTERVRESLRIWKNTEKENATVAHLVGALRSCQMNLVADLVQEVQQARDLQNRSGAMSPMSWNSDASTSEAS

Data set [1] deals with B4. Briefly: yeast two-hybrid, colour formation on X-gal (column = prey, row = bait). Here is the method: (§1) The potential binding of TTRAP to other proteins was assessed using a yeast two-hybrid assay. The experimental outline is similar to the one described for the two-hybrid screening. However, here the plasmids for bait, prey and lacZ reporter were transformed simultaneously into the EGY48 yeast strain. Positive interaction was determined either by the growth phenotype (growth on medium lacking leucine in the presence of galactose, and not in the presence of glucose) or by the blue/white staining on X-gal containing plates (blue colonies only on galactose containing plates, not on glucose containing plates). cDNA's for TRAF2 and for the cytoplasmic regions of CD30, CD40 and TNF-RII were generated by PCR using the pfu polymerase (Promega). PCR fragments encoding RIP, TRADD and FADD were cloned in pCDNA3 (Invitrogen, Carlsbad, Calif.). cDNA of TRAF3 was obtained from the laboratory of Dixit, Dept Pathol., Univ. Michigan Med. School, MI, USA. The color formation was evaluated as strong and fast (++), strong but slow (+), weak and slow (±), none (−) or not determined (nd).

Data set [2] deals with B6. The description is as above. The protocol:
as §1

For data set [3], the target named is B6. Briefly: yeast two-hybrid, colour formation on X-gal; '-' = none. The protocol:
as §1

Data set [4] addresses B2. Described as above. The protocol: as §1
Data set [5] concerns the target B7. The description is as above. The protocol:
as §1

Data set [6] deals with the molecule itself. Briefly: yeast two-hybrid (in Table I: TTRAP prey with 4F2 bait).
Data set [7] has as its target B3. As to the kind of experiment: yeast two-hybrid, colour formation on X-gal; '-' = none. The protocol:
as §1

Data set [8] deals with the molecule itself. Briefly: yeast two-hybrid, colour formation on X-gal (column = prey, row = bait). The protocol: as §1
Data set [9] addresses B4. Briefly: yeast two-hybrid, colour formation on X-gal; '-' = none. The protocol: as §1

On to B1, for which the binding result in data set [1] and in [2] was “binds” in each case.

As for B2, the binding result in data set [3] is recorded as “no binding”.

As to B3, the binding result in [4] is recorded as “no binding”; in data set [5], “no binding”; in data set [1], “binds”; in data set [2] it was “binds”.

For the molecule B4, the binding result in [6] was “binds”.

With B5, the binding result in data set [7] and in data set [3] was “no binding” each time.

Take B6: the binding result in data set [1] and in data set [8] was “binds” each time.

In the case of B7, in data set [3], the binding result is reported as “no binding”.

B8: the binding result in data set [9] and in [3] was “no binding” throughout.

With B9, the binding result in data set [9] is given as “no binding”.
